Experimental findings from PMC7081424 (ACS Omega, 2020) are described below.

The chains are these.
T1: W59F and W228F double mutation of 14-3-3ζ (human, UniProt P63104 1-245, W59F | W228F)
T1 sequence (looked up): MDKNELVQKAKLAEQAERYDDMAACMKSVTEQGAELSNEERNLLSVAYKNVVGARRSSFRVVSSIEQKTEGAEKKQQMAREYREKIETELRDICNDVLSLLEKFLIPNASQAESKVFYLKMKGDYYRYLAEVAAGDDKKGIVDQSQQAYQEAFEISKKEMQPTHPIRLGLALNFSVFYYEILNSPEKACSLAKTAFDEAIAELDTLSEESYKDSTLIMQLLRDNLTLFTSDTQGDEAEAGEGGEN

B1: 14-3-3σ with truncated C-terminus ΔC232-248 (domain or fragment, human, UniProt P31947 1-231, looked up)
chain: MERASLIQKAKLAEQAERYEDMAAFMKGAVEKGEELSCEERNLLSVAYKNVVGGQRAAWRVLSSIEQKSNEEGSEEKGPEVREYREKVETELQGVCDTVLGLLDSHLIKEAGDAESRVFYLKMKGDYYRYLAEVATGDDKKRIIDSARSAYQEAMDISKKEMPPTNPIRLGLALNFSVFHYEIANSPEEAISLAKTTFDEAMADLHTLSEDSYKDSTLIMQLLRDNLTLWT

The target of series [1] is FITC-labeled IκBαpS63 peptide (phosphorylated 14-3-3 binding motif of IκBα) (human) (UniProt P25963). The series is described as follows: fluorescence polarisation. Background: Polarisation of emitted light reports the rotation of a fluorescent probe.
Series [2] concerns the target T1, W59F and W228F double mutation of …. In words: fluorescence polarisation.
The target of series [3] is B1. The series is described as follows: crystal structure.
The series “crystal structure” deals with the molecule itself. In words: crystal structure.

Square brackets hold non-standard residues; d marks the D form. Primed or numbered codes have the meaning given here. FITC′ = fluorescein isothiocyanate; pS = N[C@@H](COP(=O)(O)O)C(=O)O; βAla = NCCC(=O)O

As for “14-3-3ζ (from UniProt P63104 1-245) (natural protein)”, the Kd (usually the concentration at which binding is half-saturated) in series [1] amounted to 380 µM.

Molecule {FITC′-βAla}-QEVPRG[pS]EPWKQQ-NH2 (peptide, UniProt P25963 57-69, looked up) [FITC-labeled IκBαpS63 peptide (phosphorylated 14-3-3 binding motif of IκBα)] gave a Kd in series [2] of roughly 415 µM.

On to Ac-QEVPRG[pS]EPWKQQ-NH2 (peptide, UniProt P25963 57-69, looked up) [unlabeled (N-terminally acetylated) IκBαpS63 peptide], for which the binding result in series [3] is given as “binds”.

On to B1, for which the binding result in the series “crystal structure” was “binds”.
